Measurements as given in the nanobody polyreactivity screen of Harvey et al. (2022).

assay: yeast display, Sf9 membrane polyspecificity reagent, FACS + sequencing; frameworks hold sequencing errors
In short: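 A nanobody's polyreactivity label depends on the gate it was sorted from. Yeast display cells were stained with 10% biotinylated, detergent-solubilized Sf9 membrane reagent for 1 hour at 4 °C, enriched on streptavidin microbeads and sorted by FACS. The low and high (top ~1%) gates were set on anti-HA fluorescence for expression and streptavidin fluorescence for reagent binding.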

Row | Sequence | polyreactivity (PSR sort gate)
1 | QVLLVESGGGLVQAGGSLRVSCAASGFTFYGYAMGWYRQAPGKERELVAARSSTGGRTYYADSVKGRFTISRDNAKNTVYLQMNSLKPEDTAVYYCNKVWRFAEHNYWGQGTQVTVSS | high polyreactivity
2 | QVLLVESGGGLVQAGGSLRVSCAASGSTFPYYAMGWYRQAPGKERELVAAITSSASTYYADSVKGRFTISRDNAKNTVYLQMNSLKPEDTAVYYCAVRTPYRLSRWRVGYWGQGTQVTVSS | high polyreactivity
3 | QVLLVESGGGLVQAGGSLSLSCAASGLIFVNAMGWYRQAPGKEREFVAAITYSTGSTYYADSVKGRFTISRDNAKNTVYLQMNSLKPEDTAFYYCAKDRSGHGTERDDWGQGTQVTVSS | low polyreactivity
4 | QVLLVESGGGLVQAGGSLSLSCAASGRTFFNNAMGWYRQAPGQEREFVAAISRSGSSTYYAVSVKGRFTISRDNAKNTVYLQMNSLKPEHTAVYYCASYLYYYSAYGYWGQGTQVTVSS | high polyreactivity
5 | QVNLVESGGGLVQAGCSLRITCADSGRTFKHNAMGWYRQAPGKERQLVAAISRRGGSTYFADSVKGRFTISRDNAKNTVYLQMNRLKPDDTAVYYCNAGYSTFLQYYGEVWKKGCYWGQGTQVTVSS | high polyreactivity
6 | QVPLVESGGGLLQAGGSLRLSCSASGYTFSKYAMGWYRQAPGKERELVAAISFSGGSTYYADSVKGRFTISRDNAKNTVYLLMNSLKPEDTAVYYCDKYTITNYDYWGQGTLVTVSS | low polyreactivity
7 | QVPLVESGGGLVQAGGSLRIRCAASGSIFAGNALGWYRQAPGKEWELVAAIARRGGSTYYADSVKGRFTISRDNAKNTVYLQMNSLKPEDTAVYYCNDLLRYAYHAAFGYWGQATQVTVSS | high polyreactivity
8 | QVPLVESGGGLVQAGGSLRISCAASGSILQYYALGWYRQAPGKERELVASISSSSGSTYYADSVKGRFTISRDNAKNTVYLQMNSLKPEDTAVYYCNARGWTLAADFGYWGQATQVTVSS | low polyreactivity
9 | QVPLVESGGGLVQAGGSLRISCAASGSTIVGYSMGWYRQAHGKERELVADITSGGGITYYADSVKGRFTISRDNAKNTVYLQMNSLKPEYSAVYYCAARVVEIFHWAGDYWGQGTQVTVSS | low polyreactivity
10 | QVPLVESGGGLVQAGGSLRLSCAASGFIFSSNARGWYRQAPGKERELVARITWSDGSTYYADSVKGRFTISRDNAKKTVYLQMNSLKPEDTAVYYCAKGRDATHYEYYLYSMDYWGQGTQVTVSS | low polyreactivity
11 | QVPLVESGGGLVQAGGSLRLSCAASGGIFRLYAMGWYRLAPGKEREVVASLSGDGDSTYYADSVQGRFTISRDNAKNTVYLQMNSLKPEDTAVYYCARQPYYFLSRPPYFRKYYYWGQGTQVTVSS | high polyreactivity
12 | QVPLVESGGGLVQAGGSLRLSCAASGHTFRFYTMGWYRQAPGKEREFVAAIRRRTGSTYYADSVKGRFTISRDNAKNTVYLQMNSLKPEDTAVYYCAAESRYYYRFYYGYHYDYWGQGTQVTVSS | high polyreactivity
13 | QVPLVESGGGLVQAGGSLRLSCAASGITFYYYTMGWYIQAPGKERELVAGITRGGRRYDADSVKGRFTISRDNAKNPVYLQMNSLKPEDTAVYYCNADDDIQYKGRYNYWGQGTQVTVSS | low polyreactivity
14 | QVPLVESGGGLVQAGGSLRLSCAASGRIFGTNTMGWYRQAPGKEREWVAAITWSGGSTYYADSGTGRFTISRDNAKNPVYLQMNSLNPEDTAGYYCNVESAYAYHGPVDYWGQGTQVTVSS | low polyreactivity
15 | QVPLVESGGGLVQAGGSLRLSCAASGRIFLRYDIGWYRKAPGKERELVAAIPRSGGSTYYADSVKGRFTISRDNAKNTVYLQMNSLKPEDTAVYYCAARRWGRVYTTYTGGYWGQGTQVTVSS | high polyreactivity
16 | QVPLVESGGGLVQAGGSLRLSCAASGRIFYFNDMGWYRQAPGKERELVAAISRSGGSTYYADSVKGRFTISRDNAKNTVYLQMNSLKPEDTAVYYCAAGRDTWPSTYYYWGQGTQVTVSS | low polyreactivity
17 | QVPLVESGGGLVQAGGSLRLSCAASGSTFTRYAMGWYRQAPGKEREFVAGISSRGSRTYYADSVKGRFTISRDNAKNTVYLQMNSLKPEDTAVYYCAVSGNHVSPPYGYWGQGTQLTVSS | high polyreactivity
18 | QVPLVESGGGLVQAGGSLRLSCAASGSTFVRYAMGWYRQAPGKERELVAGISRVGNTYYADSVKGRFTISRDNAKNTVYLQMNSLKPEDTAVYYCARSQAVYDGWFAKFGYWGQGTQVTVSS | high polyreactivity
19 | QVPLVESGGGLVQAGGSLRLSCAASGSTLGRYAMGWYRQAPGKERELVASITWSDDSTYYADSEKGRFTISRDNAKNTVYLQMNSLKPEDTAVYYCAAAGNLYTYRFYYWGQGTQVTLSS | low polyreactivity
20 | QVPLVESGGGLVQAGGSLRLSCAASGSTLTSNAMGWYRQAPGKERELVAAIRSGGSTNYADSVKGRFTISRDNAKNTVYLQMNSLKPEDTAVYYCNTDFLWQGYGYSRVSYDYWGQGTQVTVSS | low polyreactivity
21 | QVPLVESGGGLVQAGGSLRLSCAASGSTLWVYAMGWSRQAPGKERELVAAITQSTGDTHYADSVKGRFTISRDNAKNTVYLQMNSLKPEDTAVYYCAADSYLSVYDPYGDWGQGTQVTVSS | low polyreactivity
22 | QVPLVESGGGLVQAGGSLSLSCAASGNIFPSYVMGWYSQAPGKERELVAAITGNGGSTYYADSVKGRFTISRDNAKNTVYLQMNSLTAEDTEVYYCATSAPRLLRYDSSSSPSYDNWGQGTKVTVSS | low polyreactivity

Row | Sequence | polyreactivity (PSR sort gate)
23 | QVPLVESVGGLVQAGGSLRISCAASGGIFRYYAMGRYRQAPGNERELVAAITSSGTSTYYADSVKGRFTISRDNAKNTVYLQMNSLKPEDTAVYYCAAETYYSIYDYWGQGTQVTVSS | high polyreactivity
24 | QVPVVASGGGFVQAGGRLRLSCAASGRTFFYNAMGWYRQAPGKERESTYYADSVKGRFTISRDNAKNTVYLQMNSLKPEDTAVYYFAAATAYVAYEGDKGDYWGQGTQVTVSA | low polyreactivity
25 | QVQFEESGGGLVQAGGSLRLSCAASGSTFQGYAMGWYRQAPGKERELVAAISRSGGRTYYADSVKGRFTISRDNAKNTVYLQMNSLKPEDTAVYYCAAEGHELTEGDSWGQGTQVTVSS | low polyreactivity
26 | QVQFVESGGGLVQAGGSLRLSCAASGSIFALYAMGWYRQAPGKERELVAAISYRGGRTYYADSVKGRFTISRDNAKNTVYLQMNSLKPEDTAVYYCATDFPGKFDYWGQGTQVTVSS | low polyreactivity
27 | QVQFVESGGGLVQAGGSLRLSCAASGSIFIYNAMGWYRQAPGTERELVAAISRGGTNTYYADSVKGRFTISRDNAKNTVYLQMNSLKPEDTAVYYCAARGGYIGSRNNYWGQGTQVTVSS | high polyreactivity
28 | QVQHEDSGGGLVQAGGSHPLSCAASGSTFRVNAMGWYRQAPGKERELVAAISRRGGSTYYADSVKGRFTISRDNSKNTVYLQMNCLKPEDTAVYYCAAERLGTVQDDYWGQGTQVTVSS | high polyreactivity
29 | QVQHEDSGGGLVQAGGSLRLSCAASGRIFLYYAMGWYRQAPGKERELVAAISSGTSTYYADSVKGRFTISRDNAKNTVYLQMNSLKPEDTAVYYCAAYYYSYPTNGGYGYWGQGTQVTVSS | low polyreactivity
30 | QVQHEESGGGLVQAGGSLRISCAASGTTFFTYAMGWYRPAPGKEREFVAAISWSDDSTYYADSVKGRFTISRDYAKNTVYLQMNSLKPEDTAVYYCAAEWGQRGGGGYYYWGQGTQVTVSS | low polyreactivity
31 | QVQHVASGGGLVQAGGSLRLSCAASGSTFVYYAMGWYRQAPGKERELFADITKSGGSTFYAESVKGRFTISRDNAKNTVYLQMNSLKPEDTAVFYCGARYKGQYYRQGRHDYWGQGSQVTVSS | high polyreactivity
32 | QVQHVDSGGGLVQAGGSLRLSCAASGFIFSYYAMGWYRQAPVKERELVAGISYNGDRTYYADSVKGRFTISRDNAKNTFYLQMKSLKPEDTAVYYCNVVWVLGGWYDLEYDYWGQGTQVTVSS | high polyreactivity
33 | QVQHVDSGGGLVQAGGSLRLSCAASGRILYSYAMGWYRQAPGKERELVAVITTRGGTYYADSVKGRFTISRDNAKNTVYLQMNSLKPEDTAVYYCNARRYPSYKYDYWGQGTQVTVSS | high polyreactivity
34 | QVQHVESAGGLVQAGGSLPLRCAASGSTFSPNALGGYSHAHGKERELVARITRSGSRTSYADSLKGRFTISRDNAKNPVYFQMNSLKPEDTAVYYCAAEGPKQYDYWGQGTHVTVSS | low polyreactivity
35 | QVQHVESAGGLVQAGGSLRLSCAASGRTFDYNAMGWYRQAPGKERELVAAISWRGGNTYYADSVKGRFTISRDNAKNTVYLQMNSLKPEDTAVYYCGAVYRYSTRNYGYWGQGTQVTVSS | high polyreactivity
36 | QVQHVESAGGLVQAGGSLRLSCAASGSIFPYNAMGWYRQAPGKERELVAAISYSGSTTYYADSVKRRFTISRDNSKNTVYLQMNSLKPEDTAVYYCNTLSWYQYDYWGQGTQVTVSS | high polyreactivity
37 | QVQHVESGGALVQAAGSLSLRCAASGSTFGYNAMGWYRQAPSKEMELVAVITDSGGSSYYADSVKGRFTISRDNPKNTVYVQMHSLNPEDTAVYYCAKFYGLVVSGHVILSGFEYWGQGTLVTVSS | low polyreactivity
38 | QVQHVESGGALVQAGGSLRLSCAASGLIYALSAMGWDRQAPGKEMELVAAIDWSGGSTYYADSVKGRFTISRDNAKNTVYVQMNCLKPEDTAVYYCAADISSSPGNDYWGQGTQLTVSS | high polyreactivity
39 | QVQHVESGGCLVQAGGSLRLSCAASGITFEWYAMGWYRQAPGKESELVADITSGDSTNYADSVKGRFTISRDNAQNTVYLQMNSLKPEDTAVYYWAATFIGQFFSWYYYWGQGTQVTVSS | low polyreactivity
40 | QVQHVESGGDLVQAGGSLRLSCAASGSTSFHNAMGWDIQAPGKEREFVAAMSGSGDRTNYADSVKGRFTISRDNAKNTVYLQMNSLKPEDTAVYYCAARGQPGRRTSSGFFSGGYWGQGTQVTVSS | high polyreactivity
41 | QVQHVESGGGLDQAGGSLRFSCAASGTIFVYNAMGSYREAPGKERELVAAMDTVGSTNYADSVKGRFTISRDNAKNTVYLQMNSLKPEDTAVYYCAVVTPYWSFFEQVIPSNYWGQGSQVTVSS | low polyreactivity
42 | QVQHVESGGGLDQAGGSLRLSCAASGFIFGWYAMGWYRPAPGKERELVAAITWSGVRTYYADSVKGRFTISRDNAKNTVYLQMHSLKPEDTAVYYCARAGGSVGRGYKDQDGRGDYWGQGTEVTVSS | low polyreactivity
43 | QVQHVESGGGLDQAGGSLRLSCAASGFIFYDYMGWDRQAPGKQRELVAVISYSGSSTNYAYSVKGRFTITRDNAKMTVYLQINSLKPEDTAVYYWAARIVNGWDYDFWGQGSQVTVSS | low polyreactivity
